Measured values: patent US20070020688A1, “Measurement method using biosensor” (FUJI PHOTO FILM CO., LTD., priority 2005, published 2007)

Key:
trypsin [1] = target: T1, trypsin (Bos taurus, UniProt P00760); assay: Compound binding amount on trypsin-immobilized hydrogel-coated chip by surface plasmon resonance; settings: for Compound binding amount (RU): compound 0.01 mM, 3 minutes
T1 construct: purchased Worthington
T1 sequence (P00760 24-246): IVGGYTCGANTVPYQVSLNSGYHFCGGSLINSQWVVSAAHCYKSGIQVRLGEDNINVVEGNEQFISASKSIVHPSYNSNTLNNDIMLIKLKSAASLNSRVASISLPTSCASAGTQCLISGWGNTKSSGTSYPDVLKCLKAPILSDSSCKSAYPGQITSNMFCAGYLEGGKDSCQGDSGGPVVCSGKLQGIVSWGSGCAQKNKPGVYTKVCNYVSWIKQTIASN
Protocol: Trypsin (manufactured by Worthington) was immobilized on the hydrogel-coated measurement chip produced in (2) above. Measurement was carried out using the surface plasmon resonance measurement device described in (1) above.
A mixed solution of 1-ethyl-2,3-dimethylaminopropylcarbodiimide (400 mM) and N-hydroxysuccinimide (100 mM) was added to a hydrogel-coated chip, followed by leaving at rest for 20 minutes. Thereafter, the resultant product was washed with a 10 mM phosphate buffer. Subsequently, the aforementioned trypsin solution was added thereto, followed by leaving at rest for the period of time shown in Table 1. Thereafter, the resultant product was subjected to a primary washing with a 10 mM phosphate buffer, and then subjected to a secondary washing with the washing solution shown in Table 1. Thereafter, the resultant product was further washed with a 10 mM phosphate buffer. It is to be noted that it has been known that if such a secondary washing is carried out with 10 mM NaOH, non-specifically adsorbed proteins are washed out, and a baseline drift thereby becomes stable during interaction measurement.
By the aforementioned operations, trypsin was immobilized on the surface of the measurement chip via a covalent bond. The amount by which resonance signals (RU value) obtained before the addition of trypsin and after washing had changed was defined as the immobilized amount of trypsin (RU value).
The measurement chip was washed with a 10 mM phosphate buffer, and it was then equipped in the surface plasmon resonance device of the present example. Thereafter, leupeptin (0.01 mM; phosphate buffer pH 7.4), the following kinase inhibitor, and an amphipathic compound (0.01 mM; phosphate buffer pH 7.4) were added thereto, followed by leaving at rest for 3 minutes. The amount by which resonance signals (RU value) had changed was defined as the binding amount of the compound.

trypsin [2] = target: T1, trypsin; assay: Enzyme activity of immobilized trypsin, fluorescence of decomposed Bz-Arg-MCA substrate; type: biochemical; settings: for Enzyme activity (fluorescence intensity): 0.1 mM Bz-Arg-MCA, 120 minutes
Protocol: Using the chip on which trypsin had been immobilized as described in (1) above, the enzyme activity of trypsin was measured. […] Specifically, a substrate specific to trypsin (benzoyl-L-arginine-4-methylcoumarin-7-amide (hereinafter referred to as Bz-Arg-MCA); Peptide Institute, Inc.) was allowed to react with trypsin, and fluorescence in the decomposed product was measured.
The 10 mM phosphate buffer contained in the measurement chip was removed, and 0.1 mM Bz-Arg-MCA was then added thereto. The reaction was then carried out for 120 minutes.
Fluorescence measurement was carried out regarding fluorescence for each of the aforementioned reaction times, using the BMGLabTechnologies FLUOstar measurement device (excitation: 380 nm; and emission: 460 nm).

Row | Compound | Compound binding amount (RU) (trypsin [1]; Experiment No. 1: trypsin immobilized in phosphate buffer (pH 7.4), 10 mg/ml, 1 hr, secondary washing phosphate buffer (pH 7.4)) | Compound binding amount (RU) (trypsin [1]; Experiment No. 2: trypsin immobilized in phosphate buffer (pH 7.4), 2 mg/ml, 1 hr, secondary washing phosphate buffer (pH 7.4)) | Compound binding amount (RU) (trypsin [1]; Experiment No. 3: trypsin immobilized in phosphate buffer (pH 7.4), 2 mg/ml, 1 hr, secondary washing 10 mM NaOH) | Compound binding amount (RU) (trypsin [1]; Experiment No. 4: trypsin immobilized in acetate buffer (pH 5.0), 0.1 mg/ml, 0.2 hr, secondary washing phosphate buffer (pH 7.4)) | Binding to the surface, in words (trypsin [1]; surface of experiment No. 2) | Activity value (enzyme activity/immobilized amount) (trypsin [2]; Experiment No. 1) | Enzyme activity (fluorescence intensity) (trypsin [2]; Experiment No. 1: phosphate buffer (pH 7.4), 10 mg/ml, 1 hr, washing phosphate buffer (pH 7.4)) | Activity value (enzyme activity/immobilized amount) (trypsin [2]; Experiment No. 2) | Enzyme activity (fluorescence intensity) (trypsin [2]; Experiment No. 2: phosphate buffer (pH 7.4), 2 mg/ml, 1 hr, washing phosphate buffer (pH 7.4)) | Activity value (enzyme activity/immobilized amount) (trypsin [2]; Experiment No. 3) | Enzyme activity (fluorescence intensity) (trypsin [2]; Experiment No. 3: phosphate buffer (pH 7.4), 2 mg/ml, 1 hr, washing 10 mM NaOH) | Activity value (enzyme activity/immobilized amount) (trypsin [2]; Experiment No. 4) | Enzyme activity (fluorescence intensity) (trypsin [2]; Experiment No. 4: acetate buffer (pH 5.0), 0.1 mg/ml, 0.2 hr, washing phosphate buffer (pH 7.4))
1 | CC(=O)N[C@@H](CC(C)C)C(=O)N[C@@H](CC(C)C)C(=O)N[C@H](C=O)CCCNC(=N)N [Leupeptin, leupeptin] | 25 | 19 | 8 | 16 | binds to the surface | – | – | – | – | – | – | – | –
2 | Trypsin | – | – | – | – | – | 0.055 | 230 | 0.238 | 615 | 0.160 | 370 | 0.008 | 40
